Earlier results on one substance are cited in PMC5852440.

The target in this data set is EphB4 (Homo sapiens) (UniProt P54760).
Sequence of UniProt P54760 (P54760 16-539): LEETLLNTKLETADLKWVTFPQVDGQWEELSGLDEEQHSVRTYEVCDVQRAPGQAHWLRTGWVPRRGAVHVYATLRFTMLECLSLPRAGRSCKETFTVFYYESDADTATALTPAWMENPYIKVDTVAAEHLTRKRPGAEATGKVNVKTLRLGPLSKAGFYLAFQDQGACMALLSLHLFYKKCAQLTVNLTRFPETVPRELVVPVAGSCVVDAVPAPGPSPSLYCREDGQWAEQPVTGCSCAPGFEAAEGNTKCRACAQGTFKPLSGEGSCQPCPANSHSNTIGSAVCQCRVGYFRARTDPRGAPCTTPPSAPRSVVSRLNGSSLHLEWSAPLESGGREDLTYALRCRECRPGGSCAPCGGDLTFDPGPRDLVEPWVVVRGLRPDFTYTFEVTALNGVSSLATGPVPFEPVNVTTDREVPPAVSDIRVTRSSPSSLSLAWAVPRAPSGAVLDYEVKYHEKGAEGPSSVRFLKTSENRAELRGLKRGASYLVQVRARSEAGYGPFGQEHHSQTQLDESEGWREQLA

On to Epo (from UniProt P01588), for which the Kd was 880 nM.

For orientation: Kd means the concentration at which binding is half-saturated.
